Experiment [1] addresses T1, recombinant human Siglec-15-his protein (Bonopusbio) (human, UniProt Q6ZMC9 20-263).
T1 construct: Bought (CW37-50 ug in the ELISA; the SPR paragraph prints CW70-50 ug); whole entry named; also called recombinant human Siglec-15 protein
T1 sequence: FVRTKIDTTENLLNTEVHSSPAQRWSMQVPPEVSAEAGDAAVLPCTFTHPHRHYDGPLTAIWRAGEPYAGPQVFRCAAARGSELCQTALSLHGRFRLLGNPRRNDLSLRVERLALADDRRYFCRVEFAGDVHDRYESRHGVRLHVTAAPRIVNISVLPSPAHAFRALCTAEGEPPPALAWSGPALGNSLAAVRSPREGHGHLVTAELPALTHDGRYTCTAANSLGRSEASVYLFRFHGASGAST
The experiment can be described thus: SPR (Biacore T200), antibody on CM5 chip, Siglec-15-his as analyte.

Experiment [2] has as its target T2, recombinant Siglec-15 (bispecific antibody affinity assay) (Homo sapiens (Human), UniProt Q6ZMC9 20-263, limits assumed).
T2 sequence: T1 sequence
The experiment can be described thus: antibody as ligand, human Siglec15 as analyte; legend paragraph 114 says BLI, methods paragraph 422 say Biacore SPR, table in RU.

The target of a further experiment is recombinant CD3 (UniProt P07766 23-126; P09693 23-116). The experiment can be described thus: antibody as ligand, 'Human CD3 epsilon&CD3 gamma' as analyte; legend paragraph 116 says BLI, methods paragraph 422 say Biacore SPR, table in RU. Background: Surface plasmon resonance follows binding to a sensor surface in real time, without labels.

Experimental findings from US20250361297A1 (ADAPTAM THERAPEUTICS S L, published 2025) are described below.

Residue numbers refer to the chain shown, from its start.

Usually Kd stands for the concentration at which binding is half-saturated. A word on the koff: it is a measure of how fast the partners let go of each other. A word on the kon: it is a measure of how fast the partners come together.

recombinant CD3, sequence (P07766 23-126, form in doubt, chain 1 of 2): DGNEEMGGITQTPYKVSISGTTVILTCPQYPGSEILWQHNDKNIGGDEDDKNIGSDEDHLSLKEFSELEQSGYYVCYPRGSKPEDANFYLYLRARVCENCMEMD
recombinant CD3, sequence (P09693 23-116, form in doubt, chain 2 of 2): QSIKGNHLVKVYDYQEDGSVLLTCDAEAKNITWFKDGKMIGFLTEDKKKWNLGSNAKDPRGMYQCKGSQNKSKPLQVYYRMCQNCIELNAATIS

B1: S15B1-VH1 + VL1 (antibody, V domains shown)
VH: QVQLVQSGAEVKKPGASVKVSCKASGYAFSSSWMNWVRQAPGQGLEWIGRIYPGHGETNYNGKFKDRVTMTADTSTSTVYMELSSLRSEDTAVYFCARVDNSDPYYFDYWGQGTTVTVSS
VL: DIVLTQSPASLAVSPGQRATITCRASKSVSTSGYSYMHWYQQKPGQPPKLLIYLASNLESGVPARFSGSGSGTDFTLTINPVEAEDTANYYCQHGRELPFTFGGGTKLEIK
notes: Humanized S15B1; also called humanized S15B1 VH1+VL1; huS15B1
Consider B1, for which, in experiment [1], the Kd came to 0.136 nM, the koff is 0.000455 s⁻¹ and the kon stood at 3.35e+06 M⁻¹ s⁻¹.

B2: S15B1-VH2 + VL1 (antibody, V domains shown)
VH: B1 VH
VL: B1 VL
notes: Humanized S15B1; also called humanized S15B1 VH2+VL1; huS15B1
As to B2, in experiment [1], the Kd is 0.125 nM, the koff turned out to be 0.000473 s⁻¹ and the on-rate (kon) is 3.8e+06 M⁻¹ s⁻¹.

B3: S15B1-VH4 + VL1 (antibody, V domains shown)
VH: B1 VH with R38K, V68A, T74K
VL: B1 VL
notes: Humanized S15B1; also called humanized S15B1 VH4+VL1; huS15B1
Take B3: in experiment [1], the Kd stood at 0.0938 nM, the off-rate (koff) was found to be 0.000385 s⁻¹ and the on-rate constant (kon) is 4.1e+06 M⁻¹ s⁻¹.

B4: S15B1-VH1 + VL2 (antibody, V domains shown)
VH: B1 VH
VL: B1 VL with N89T
notes: Humanized S15B1; also called humanized S15B1 VH1+VL2; huS15B1
Turning to B4, in experiment [1], the dissociation constant (Kd) amounted to 0.159 nM, the koff turned out to be 0.000563 s⁻¹ and the kon amounted to 3.54e+06 M⁻¹ s⁻¹.

B5: S15B1-VH4 + VL2 (antibody, V domains shown)
VH: B1 VH with R38K, V68A, T74K
VL: B1 VL with N89T
notes: Humanized S15B1; also called humanized S15B1 VH4+VL2; huS15B1
On to B5, for which, in experiment [1], the Kd was 0.138 nM, the koff stood at 0.000234 s⁻¹ and the on-rate (kon) was found to be 1.69e+06 M⁻¹ s⁻¹.

B6: BsAb-2 (bispecific antibody, human IgG1, kappa, L234A L235A)
light 1: not shown
heavy 1: QVQLQQSGPELVKPGASVKISCKASGYAFSSSWMNWVKQRPGKGLEWIGRIYPGHGETNYNGKFKDKATVTADKSSSTTYMQLSSLTSEDSAVYFCARVDNSDPYYFDYWGQGTTLTVSSASTKGPSVFPLAPSSKSTSGGTAALGCLVKDYFPEPVTVSWNSGALTSGVHTFPAVLQSSGLYSLSSVVTVPSSSLGTQTYICNVNHKPSNTKVDKKVEPKSCDKTHTCPPCPAPEAAGGPSVFLFPPKPKDTLMISRTPEVTCVVVDVSHEDPEVKFNWYVDGVEVHNAKTKPREEQYNSTYRVVSVLTVLHQDWLNGKEYKCKVSNKALPAPIEKTISKAKGQPREPQVCTLPPSRDELTKNQVSLSCAVKGFYPSDIAVEWESNGQPENNYKTTPPVLDSDGSFFLVSKLTVDKSRWQQGNVFSCSVMHEALHNHYTQKSLSLSPGK
heavy 2: not shown
light 2: not shown
notes: 2 + 1 format; also called anti-Siglec-15/CD3 bispecific antibody, Format-2: KIH & scFv (2 + 1)
In the case of B6, in experiment [2], the Kd turned out to be 0.17 nM, the koff was determined as 0.000133 s⁻¹ and the kon was determined as 786000 M⁻¹ s⁻¹. In the experiment with recombinant CD3, the Kd amounted to 137 nM, the koff was found to be 0.00739 s⁻¹ and the on-rate (kon) came out at 53800 M⁻¹ s⁻¹.
